“Also recorded” adds a separate entry of the source. Ends that are not written are not given here.
Experiments:
HCII = conditions: ref [47]; read-out: KD, HCII-dermatan sulfate interaction; cited from earlier work
Description: (§1) The relative contributions to HCII function of a template mechanism, in which thrombin and HCII become co-localized due to their binding to the same glycosaminoglycan chain, or a conformational change mechanism, in which GAG binding to HCII releases the N-terminal extension of HCII for exosite 1 binding, remain somewhat controversial, as does the degree of cross-talk between thrombin’s exosites and active site.

thrombin [1] = molecular target: T1, thrombin (Homo sapiens, UniProt P00734); conditions: ref [47]; read-out: KD, thrombin binding to dermatan sulfate; cited from earlier work
T1 construct: purchased Enzyme Research, South Bend, IN; host or cells: HCII 1-75 probe made in house in E. coli TOP10
Description: as §1

human thrombin = assay: thrombin clotting time in plasma; format: biochemical
Method: Thrombin times were determined using Thrombin 10 (freeze-dried human thrombin with calcium [1.5 NIH units/mL] Diagnostica Stago, Asnieres, France) and an STA 4 coagulation analyzer (Diagnostica Stago). Citrated human plasma (25 μL) was combined with 75 μL veronal buffer (7.14 mM sodium acetate trihydrate, 7.4 mM sodium diethyl barbiturate, 131 mM NaCl pH 7.4) containing or lacking HCII- or hirudin-related peptides, and clotting time was determined following the addition of 100 μL Thrombin 10 reagent.
Figure 4 Effects of competitor peptides on thrombin clotting time. […] The mean ± the SD of 3 independent experiments is shown.

thrombin [2] = molecular target: T1, thrombin; assay: SPR competition of thrombin binding to chip-immobilized HCII 1-75
Method: Surface plasmon resonance experiments were carried out using a BIAcore X biosensor instrument (Biacore, Piscataway, NJ) at 25°C. Biotinylated HCII- or hirudin-related peptides were immobilized on streptavidin-coated sensor chips (GE Healthcare) under conditions recommended by the manufacturer. […] A flow rate of 2 μL/minute was employed for immobilization runs, with 0.5 M NaCl employed as a regeneration buffer and HEPES-buffered saline (10 mM HEPES, 150 mM NaCl, 0.005% Tween-20, pH 7.7) otherwise used for binding determinations. Binding of thrombin (0-30 μM) was assessed using 20 μL injection volumes, and flow rates of 20 μL/minute. BIAcore Evaluation 3.2 (BIAcore) software was used to evaluate sensorgrams from each run, using either 1:1 Langmuir binding or steady state analysis. In some experiments various concentrations of HCII- or hirudin-related peptides were combined with 250 nM thrombin or FPR-ck-thrombin immediately prior to being flowed over chip-bound HCII 1-75.
Figure 6 Senorgrams from surface plasmon resonance (SPR) experiments. Biotinylated HCII 1-75 was bound to streptavidin-coated sensor chips and varying concentrations of thrombin were flowed over the chip, generating sensorgrams (e.g. Panel A) of the response in response units (RU) versus the time in seconds. Panel B is a plot of experiment shown in Panel A, combined with two other independent experiments; each point therefore represents the mean mid-plateau response ± the SD of 3 independent experiments. In panels C-F the thrombin concentration was fixed at 250 nM and competitor peptides identified in each panel were combined with thrombin and flowed over the chip. The concentration of competitor peptides in each experiment is shown to the left of the sensorgram.

α-thrombin [3] = molecular target: T2, α-thrombin (Homo sapiens, UniProt P00734); assay: competition of heparin-catalysed thrombin inhibition by plasma-derived HCII (k2app); format: biochemical; set-up: purchased Enzyme Research, South Bend, IN; conditions: 250 μM competitor peptide, 140 nM plasma-derived HCII, 55 μg/mL standard heparin
Method: (§2) The apparent second-order rate constant (k2app) of α-thrombin inhibition by purified plasma-derived HCII (Affinity Biologicals, Ancaster, ON) was determined under pseudo-first order conditions involving an excess of plasma-derived HCII over α-thrombin using a discontinuous assay as previously described, with or without addition of competitor HCII 1-75, HCII 54-75, or HCII 1-53 at 0.25 mM. Briefly, plasma-derived HCII (140 nM) was incubated with α-thrombin (14 nM) in PPNE buffer (20 mM Na2HPO4, pH 7.4, 100 mM NaCl, 0.1 mM EDTA, 0.1% polyethylene glycol 8000) supplemented with 0.055 mg/mL (2 μM) standard heparin (Hepalean, Organon Teknika Canada, St. Laurent, QC) and 10 μM S2238 (DiaPharma,West Chester OH) or 0.055 mg/mL (1.4 μM) dermatan sulfate (Sigma-Aldrich, St. Louis, MO). Residual protease activity was determined by diluting the reactions 100-fold into 100 μM S2238 and measuring the absorbance at 405 nm for 5 minutes using an EL808 plate reader (BioTek Instruments, Winooski, VT).
(§3) Figure 5 Effects of HCII-derived peptides on the inhibition of thrombin by plasma-derived HCII in the presence of GAGs. […] The competing peptides that were used separately at 250 μM were: HCII 1-75; HCII 54-75; or HCII 1-53. The mean ± the SD of 3 independent experiments is shown.

α-thrombin [4] = molecular target: T2, α-thrombin; assay: competition of dermatan sulfate-catalysed thrombin inhibition by plasma-derived HCII (k2app); format: biochemical; set-up: purchased Enzyme Research, South Bend, IN; conditions: 250 μM competitor peptide, 1.4 μM dermatan sulfate
Method: as §2, §3

α-thrombin [5] = molecular target: T2, α-thrombin; assay: competition of binding of α-thrombin to HCII 1-75 immobilized on microtiter plate wells; set-up: purchased Enzyme Research, South Bend, IN; host or cells: HCII 1-75 probe made in house in E. coli TOP10; conditions: 5 nM thrombin, 37°C 30 min, anti-thrombin antibody, OD 490 nm; mean of 3 determinations ± SD
Method: Purified HCII 1-75 was immobilized onto an Immulon 4 HBX 96 well microtiter plate (Thermo, Milford MA), using a 1 μM solution of HCII 1-75 in PBS at 0.1 mL per well overnight at 4°C. The HCII solution was then removed and the wells blocked with 5% BSA (w/vol) in PBS-T for one hour at ambient temperature. […] Wells were washed and reacted with horseradish peroxidase-conjugated sheep anti-human thrombin antibody (Affinity Biologicals, Ancaster, ON), diluted 1:10,000 in blocking buffer, for one hour at ambient temperature. Following washes with PBS-T, colour was developed using a freshly made solution of 5 mg o-phenylenediamine (Pierce) in 12 mL of 25 mM citric acid, 97 mM Na2HPO4 pH5.0 supplemented with 0.03% (v/vol) hydrogen peroxide for ten minutes prior to stopping the reaction with sulfuric acid. The optical density at 490 nm was then read on an EL808 Plate reader (Biotek Instruments, Winooski, VT). […] The same program was used to calculate IC50s in competitive binding experiments in which HCII-derived or hirudin-derived peptides were used to compete the binding of thrombin to immobilized HCII 1-75.

α-thrombin [6] = molecular target: T2, α-thrombin; assay: amidolytic activity of thrombin against S2238 after modification; format: biochemical; set-up: purchased Enzyme Research, South Bend, IN; conditions: bFPRck:thrombin molar ratio 10:1, TBS pH 7.4, ten minutes ambient
Method: HCII- or hirudin-related peptides in 50 mM sodium phosphate pH 6.5 were combined with 20-fold molar excess sulfosuccinimidyl-6-(biotinamido) hexanoate (sulfo-NHS-LC-biotin, Pierce) at ambient temperature for 30 minutes. Reactions were quenched with excess Tris-Cl pH 7.4 and sulfo-NHS-LC-biotin removed by desalting or dialysis. Biotinylated FPR chloromethylketone (bFPRck; Haematologic Technologies, Essex Junction, VT) was used to modify α-thrombin at a bFPRck: thrombin molar ratio of 10:1 in Tris-buffered saline (TBS, pH 7.4) for ten minutes at ambient temperature. Excess reagent was removed by overnight dialysis versus TBS.

thrombin [7] = conditions: ref [21], cited from earlier work
Description: Although the differences between the encounter complex and the native structure support the allosteric model of activation, they provide no information on the position or role of the first 54 residues of HCII. […] We replicated this experiment and extended it to include all four of the exosite 1 ligand peptides employed in this study, as shown in Figure 4. We used the measurement previously employed to judge the potency of the peptides, the concentration required to double the thrombin clotting time. […] While there are no similar values in the literature available for HCII 1-75 for comparison to our results, ...

dermatan sulfate
Kd (HCII): 236000 to 290000 nM | Kd (thrombin [1]): 2000 to 6000 nM

HCII 1-53: Synthetic peptide containing the first 53 residues of human HCII and a nonapeptide N-terminal tag ({Met-Gly-Ser-H2N-H2N-H2N-H2N-H2N-H2N}-GSKGPLDQLEKGGETAQSADPQWEQLNNKNLSMPLLPADFHKENTVTNDWIPE; UniProt P05546 20-72, looked up, fragment)
effect on thrombin-mediated plasma clotting (human thrombin; plasma clotting assay): no effect; also recorded: no detectable ability to bind thrombin, to delay thrombin-mediated coagulation | Ki, inhibition of thrombin binding to HCII 1-75 (SPR) (thrombin [2]; 250 nM thrombin, chip-immobilized HCII 1-75, SPR 25°C, HBS pH 7.7, Ki from IC50 using KD 340 nM, mean of 3 determinations ± SD): No inhibition | thrombin binding (thrombin [2]; summary statement, discussion/conclusions): no detectable ability to bind thrombin; also recorded: did not bind to thrombin | effect on thrombin binding to HCII 1-75 (thrombin [2]; up to 250 μM competitor, 250 nM thrombin, SPR): no effect on thrombin binding to HCII 1-75 | effect on rate of thrombin inhibition by plasma-derived HCII, heparin (α-thrombin [3]): no effect; also recorded: no detectable ability to bind thrombin, to delay thrombin-mediated coagulation, or to compete for the N-terminal HCII 1-75 extension in native HCII | effect on rate of thrombin inhibition by plasma-derived HCII, dermatan sulfate (α-thrombin [4]): no reduction in the apparent rate of inhibition

sulfo-Hir 54-65: Synthetic peptide containing the C-terminal 12 residues of hirudin, with Tyr63 sulfated [reference compound]
concentration required to double the thrombin clotting time (human thrombin; diluted citrated human plasma, Thrombin 10 reagent, mean of 3 determinations ± SD): 0.150 ± 0.02 µM | Ki (thrombin [2]; 250 nM thrombin, chip-immobilized HCII 1-75, SPR 25°C, HBS pH 7.7, Ki from IC50 using KD 340 nM, mean of 3 determinations ± SD, read-out: Ki, inhibition of thrombin binding to HCII 1-75 (SPR)): 54 ± 90 nM | fold more effective competitor of thrombin binding than HCII 1-75 (thrombin [2]; SPR competition): 48 fold | IC50 (α-thrombin [5]): 140 ± 40 nM

Biotinylated FPR chloromethylketone [bFPRck]
amidolytic activity of modified thrombin against S2238 (α-thrombin [6]): no detectable amidolytic activity against S2238

HCII 54-75 peptide: synthetic peptide to HCII residues 54-75 of ref [21] (GEEDDDYLDLEKIFSEDDDYID; not fully specified (N-terminus); UniProt P05546 73-94, looked up, fragment)
fold less potent than sulfo-Hir 54-65 as inhibitor of thrombin-mediated clotting (thrombin [7]; recalcified human plasma): approximately 30 fold | inhibition of thrombin activities (thrombin [7]): inhibition of thrombin-mediated fibrinogen cleavage and clot formation

Source: paper PMC3601010, “The complete N-terminal extension of heparin cofactor II is required for maximal effectiveness as a thrombin exosite 1 ligand” (BMC Biochemistry, 2013)
